Assay results as given in patent publication US20200165312A1, “COSMETIC COMPOSITION FOR IMPROVING SKIN CONDITIONS COMPRISING FUSION PROTEIN INCLUDING SKIN PENETRATION ENHANCING PEPTIDE” (LG HOUSEHOLD & HEALTH CARE LTD., priority 2017, published 2020).

Key:
[1] = Skin retentivity of growth factor fusion proteins (porcine skin disrupted, ELISA); type: in vitro ADME; settings: for Remaining amount (%): skin after 16 hours penetration test
Procedure: (§1) Specifically, the porcine skin remained after the experiment of Example 3-2-4 was recovered, frozen in liquid nitrogen, and disrupted. An amount of PDGFa or T-PDGFa contained therein was quantitatively analyzed using the ELISA kit (R&D Systems). In addition, a relative amount of T-PDGFa to PDGFa was calculated as a remaining amount (Table 8).
Specifically, the porcine skin remained after the experiment of Example 3-3-4 was recovered, frozen in liquid nitrogen, and disrupted. An amount of VEGF or T-VEGF contained therein was quantitatively analyzed using the ELISA kit (R&D Systems).
as §1, with “3-4-4” for “3-2-4”, “IGF-1” for “PDGFa”, “T-IGF-1” for “T-PDGFa”, “17).” for “8).”
as §1, with “3-5-3” for “3-2-4”, “KGF” for “PDGFa”, “T-KGF” for “T-PDGFa”, “21).” for “8).”
as §1, with “3-6-3” for “3-2-4”, “Tβ4” for “PDGFa”, “T-Tβ4” for “T-PDGFa”, “25).” for “8).”

dermal papilla cells = test: Hair follicle stem cell proliferation: dermal papilla cells, Cell Counter Kit-8; type: cell-based; settings: for Proliferation (%): control = 100
Procedure: (§2) Specifically, dermal papilla cells were inoculated onto a 96-well plate and cultured for 24 hours to obtain cultures at a density of 6,000 cells per well. The cultures were washed with PBS and cultured in a serum-free DMEM medium for one day. The cells were washed with PBS again and cultured in a serum-free DMEM medium supplemented with 1 ng/mL T-PDGFa or PDGFa for one day. The cultures were obtained therefrom and a difference between proliferated amounts of cells was quantitively analyzed using the Cell Counter Kit-8 (Dojindo). Here, dermal papilla cells cultured in a serum-free DMEM medium without T-PDGFa or PDGFa were used as a control (Table 6).
Specifically, dermal papilla cells were inoculated onto a 96-well plate and cultured for 24 hours to obtain cultures at a density of 6,000 cells per well. The cultures were washed with PBS and cultured in a serum-free DMEM medium for one day. […] The cultures were obtained therefrom and a difference between proliferated amounts of cells was quantitively analyzed using the Cell Counter Kit-8 (Dojindo).
as §2, with “T-IGF-1” for “T-PDGFa”, “IGF-1” for “PDGFa”, “15).” for “6).”
as §2, with “10” for “1”, “T-KGF” for “T-PDGFa”, “KGF” for “PDGFa”, “19).” for “6).”
as §2, with “10” for “1”, “T-Tβ4” for “T-PDGFa”, “Tβ4” for “PDGFa”, “23).” for “6).”

Substance: IGF-1: insulin-like growth factor-1 having an amino acid sequence of SEQ ID NO: 41
- Remaining amount (%) ([1]; relative to IGF-1): 100 ± 28%
- Proliferation (%) (dermal papilla cells; 1 ng/mL T-IGF-1 or IGF-1, one day): 440 ± 45%

Substance: PDGFa: platelet-derived growth factor subunit a having an amino acid sequence of SEQ ID NO: 35
- Remaining amount (%) ([1]; relative to PDGFa): 100 ± 20%
- Proliferation (%) (dermal papilla cells; 1 ng/mL T-PDGFa or PDGFa, one day): 1030 ± 19%

Substance: T-Tβ4: SEQ ID NO: 1 peptide C-terminal linked to N-terminal of Tβ4 via GG linker (NGSLNTHLAPILGGSDKPDMAEIEKFDKSKLKKTETQEKNPLPSKETIEQEKQAGES; Synthetic Fusion protein of T-T beta 4)
- Remaining amount (%) ([1]; relative to Tβ4): 9,600 ± 450%
- skin retentivity higher than the unfused protein ([1]; summary of Tables 8, 13, 17, 21, 25): about 100 times
- Proliferation (%) (dermal papilla cells; 10 ng/mL T-Tβ4 or Tβ4, one day): 220 ± 16%
- cell proliferation effect compared with the unfused protein (dermal papilla cells; dermal papilla cells): same level

Substance: Tβ4: thymosin beta 4 having an amino acid sequence of SEQ ID NO: 47
- Remaining amount (%) ([1]; relative to Tβ4): 100 ± 17%
- Proliferation (%) (dermal papilla cells; 10 ng/mL T-Tβ4 or Tβ4, one day): 260 ± 20%
